{"source": "patent US20090130134A1", "about": "“T CD4+ Epitopes of Type I and II Latency Antigens of the Epstein-Barr Virus, Which Can Be Recognized by the majority of individuals in the caucasian populations and applications thereof” (priority 2005, published 2009)", "key": {"HLA-DR1 (human)": {"target": "HLA-DR1 (human)", "assay": "competition ELISA, tracer HA 306-318"}, "HLA-DR11 (human)": {"target": "HLA-DR11 (human)", "assay": "competition ELISA, tracer HA 306-318"}, "HLA-DR7 (human)": {"target": "HLA-DR7 (human)", "assay": "competition ELISA, tracer YKL"}, "[1]": {"target": "T1, HLA-DP4 (DPB1*0402) (human), P20036", "T1 chain 1": "not shown", "T1 chain 2": "not shown", "assay": "competition ELISA, tracer Oxy 271-287"}, "[2]": {"target": "T2, HLA-DP4 (DPB1*0401) (human), P20036", "T2 chain 1": "not shown", "T2 chain 2": "not shown", "assay": "competition ELISA, tracer Oxy 271-287"}, "HLA-DRB5 (human)": {"target": "HLA-DRB5 (human)", "assay": "competition ELISA, tracer not stated"}, "HLA-DR15 (human)": {"target": "HLA-DR15 (human)", "assay": "competition ELISA, tracer A3 152-166"}, "HLA-DR4 (human)": {"target": "HLA-DR4 (human)", "assay": "competition ELISA, tracer HA 306-318"}}, "data": [{"binder": "ALWNLHGQALFLGIVL (modifications not checked)", "note": "[A16L]", "values": [{"measurement": "IC50", "setting": "HLA-DR1 (human)", "result": 79, "unit": "nM"}, {"measurement": "IC50", "setting": "HLA-DR11 (human)", "result": 11000, "unit": "nM"}, {"measurement": "IC50", "setting": "HLA-DR7 (human)", "result": 122, "unit": "nM"}, {"measurement": "IC50", "setting": "[1]", "result": 725, "unit": "nM"}, {"measurement": "IC50", "setting": "[2]", "result": 1180, "unit": "nM"}, {"measurement": "IC50", "setting": "HLA-DRB5 (human)", "result": 2680, "unit": "nM"}, {"measurement": "IC50", "setting": "HLA-DR15 (human)", "result": 48, "unit": "nM"}]}, {"binder": "DPHLPTLLLGTSGSGGDDDDPHGPVQLSYYD (modifications not checked)", "note": "[D31D]", "values": [{"measurement": "IC50", "setting": "HLA-DR1 (human)", "result": 17300, "unit": "nM"}, {"measurement": "IC50", "setting": "HLA-DR11 (human)", "result": 25000, "unit": "nM"}, {"measurement": "IC50", "setting": "HLA-DR7 (human)", "result": 27500, "unit": "nM"}, {"measurement": "IC50", "setting": "[1]", "result": 28300, "unit": "nM"}, {"measurement": "IC50", "setting": "HLA-DR15 (human)", "result": 251, "unit": "nM"}]}, {"binder": "ASSYAAAQRKLLTPV (modifications not checked)", "note": "[A15V]", "values": [{"measurement": "IC50", "setting": "HLA-DR1 (human)", "result": 1200, "unit": "nM"}, {"measurement": "IC50", "setting": "HLA-DR11 (human)", "result": 4, "unit": "nM"}, {"measurement": "IC50", "setting": "HLA-DR4 (human)", "result": 35500, "unit": "nM"}, {"measurement": "IC50", "setting": "HLA-DR7 (human)", "result": 1730, "unit": "nM"}, {"measurement": "IC50", "setting": "HLA-DRB5 (human)", "result": 463, "unit": "nM"}, {"measurement": "IC50", "setting": "HLA-DR15 (human)", "result": 26500, "unit": "nM"}]}]}
